From US20260015399A1 (Boehringer Ingelheim, published 2026)
*1 amine or outer side, *2 acyl side, *3 side chain or, on linkers, in order; H or OH if unused. Side-chain parts run from the residue outwards. The star is where a group is joined. C18 diacid = O=C(O)CCCCCCCCCCCCCCCCC(=O)*; γGlu = O=C(O)[C@H](CCC(=O)[*:2])N[*:1]; Isovaleryl = CC(C)CC(=O)*; Ahx = NCCCCCC(=O)O

T1: human NPY2 receptor (human, UniProt P49146 1-381)
T1 construct: whole, on cells; also called hNPY2-R; hNPY2R
T1 sequence (looked up): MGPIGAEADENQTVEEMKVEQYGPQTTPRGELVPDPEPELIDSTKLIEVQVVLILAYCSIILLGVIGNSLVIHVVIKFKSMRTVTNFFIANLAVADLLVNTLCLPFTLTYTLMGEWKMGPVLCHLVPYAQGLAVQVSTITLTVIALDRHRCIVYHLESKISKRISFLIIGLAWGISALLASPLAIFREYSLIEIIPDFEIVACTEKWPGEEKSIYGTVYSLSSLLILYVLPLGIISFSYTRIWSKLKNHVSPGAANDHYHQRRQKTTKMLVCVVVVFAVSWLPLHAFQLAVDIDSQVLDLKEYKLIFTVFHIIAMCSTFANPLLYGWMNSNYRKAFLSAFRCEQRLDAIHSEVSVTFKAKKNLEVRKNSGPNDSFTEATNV

B1: Compound 87 (peptide)
peptide: Isovaleryl-APEK([Ahx-γGlu-C18 diacid])PEEDATPEELQRYYVPLRHYYNWLTRQRY-NH2
SMILES: CC(C)CC(=O)N[C@@H](C)C(=O)N1CCC[C@H]1C(=O)N[C@@H](CCC(=O)O)C(=O)N[C@@H](CCCCNC(=O)CCCCCNC(=O)CC[C@H](NC(=O)CCCCCCCCCCCCCCCCC(=O)O)C(=O)O)C(=O)N1CCC[C@H]1C(=O)N[C@@H](CCC(=O)O)C(=O)N[C@@H](CCC(=O)O)C(=O)N[C@@H](CC(=O)O)C(=O)N[C@@H](C)C(=O)N[C@H](C(=O)N1CCC[C@H]1C(=O)N[C@@H](CCC(=O)O)C(=O)N[C@@H](CCC(=O)O)C(=O)N[C@@H](CC(C)C)C(=O)N[C@@H](CCC(N)=O)C(=O)N[C@@H](CCCNC(=N)N)C(=O)N[C@@H](Cc1ccc(O)cc1)C(=O)N[C@@H](Cc1ccc(O)cc1)C(=O)N[C@H](C(=O)N1CCC[C@H]1C(=O)N[C@@H](CC(C)C)C(=O)N[C@@H](CCCNC(=N)N)C(=O)N[C@@H](Cc1c[nH]cn1)C(=O)N[C@@H](Cc1ccc(O)cc1)C(=O)N[C@@H](Cc1ccc(O)cc1)C(=O)N[C@@H](CC(N)=O)C(=O)N[C@@H](Cc1c[nH]c2ccccc12)C(=O)N[C@@H](CC(C)C)C(=O)N[C@H](C(=O)N[C@@H](CCCNC(=N)N)C(=O)N[C@@H](CCC(N)=O)C(=O)N[C@@H](CCCNC(=N)N)C(=O)N[C@@H](Cc1ccc(O)cc1)C(N)=O)[C@@H](C)O)C(C)C)[C@@H](C)O
B2: Compound 94 (peptide)
peptide: Isovaleryl-APAK([Ahx-γGlu-C18 diacid])PEADASPEELQRYYVELRHYYNWLTRQRY-NH2
SMILES: CC(C)CC(=O)N[C@@H](C)C(=O)N1CCC[C@H]1C(=O)N[C@@H](C)C(=O)N[C@@H](CCCCNC(=O)CCCCCNC(=O)CC[C@H](NC(=O)CCCCCCCCCCCCCCCCC(=O)O)C(=O)O)C(=O)N1CCC[C@H]1C(=O)N[C@@H](CCC(=O)O)C(=O)N[C@@H](C)C(=O)N[C@@H](CC(=O)O)C(=O)N[C@@H](C)C(=O)N[C@@H](CO)C(=O)N1CCC[C@H]1C(=O)N[C@@H](CCC(=O)O)C(=O)N[C@@H](CCC(=O)O)C(=O)N[C@@H](CC(C)C)C(=O)N[C@@H](CCC(N)=O)C(=O)N[C@@H](CCCNC(=N)N)C(=O)N[C@@H](Cc1ccc(O)cc1)C(=O)N[C@@H](Cc1ccc(O)cc1)C(=O)N[C@H](C(=O)N[C@@H](CCC(=O)O)C(=O)N[C@@H](CC(C)C)C(=O)N[C@@H](CCCNC(=N)N)C(=O)N[C@@H](Cc1c[nH]cn1)C(=O)N[C@@H](Cc1ccc(O)cc1)C(=O)N[C@@H](Cc1ccc(O)cc1)C(=O)N[C@@H](CC(N)=O)C(=O)N[C@@H](Cc1c[nH]c2ccccc12)C(=O)N[C@@H](CC(C)C)C(=O)N[C@H](C(=O)N[C@@H](CCCNC(=N)N)C(=O)N[C@@H](CCC(N)=O)C(=O)N[C@@H](CCCNC(=N)N)C(=O)N[C@@H](Cc1ccc(O)cc1)C(N)=O)[C@@H](C)O)C(C)C
B3: Compound 90 (peptide)
peptide: Isovaleryl-APEK([Ahx-γGlu-C18 diacid])PEEDATPEELQRYYVVLRHYYNWLTRQRY-NH2
SMILES: CC(C)CC(=O)N[C@@H](C)C(=O)N1CCC[C@H]1C(=O)N[C@@H](CCC(=O)O)C(=O)N[C@@H](CCCCNC(=O)CCCCCNC(=O)CC[C@H](NC(=O)CCCCCCCCCCCCCCCCC(=O)O)C(=O)O)C(=O)N1CCC[C@H]1C(=O)N[C@@H](CCC(=O)O)C(=O)N[C@@H](CCC(=O)O)C(=O)N[C@@H](CC(=O)O)C(=O)N[C@@H](C)C(=O)N[C@H](C(=O)N1CCC[C@H]1C(=O)N[C@@H](CCC(=O)O)C(=O)N[C@@H](CCC(=O)O)C(=O)N[C@@H](CC(C)C)C(=O)N[C@@H](CCC(N)=O)C(=O)N[C@@H](CCCNC(=N)N)C(=O)N[C@@H](Cc1ccc(O)cc1)C(=O)N[C@@H](Cc1ccc(O)cc1)C(=O)N[C@H](C(=O)N[C@H](C(=O)N[C@@H](CC(C)C)C(=O)N[C@@H](CCCNC(=N)N)C(=O)N[C@@H](Cc1c[nH]cn1)C(=O)N[C@@H](Cc1ccc(O)cc1)C(=O)N[C@@H](Cc1ccc(O)cc1)C(=O)N[C@@H](CC(N)=O)C(=O)N[C@@H](Cc1c[nH]c2ccccc12)C(=O)N[C@@H](CC(C)C)C(=O)N[C@H](C(=O)N[C@@H](CCCNC(=N)N)C(=O)N[C@@H](CCC(N)=O)C(=O)N[C@@H](CCCNC(=N)N)C(=O)N[C@@H](Cc1ccc(O)cc1)C(N)=O)[C@@H](C)O)C(C)C)C(C)C)[C@@H](C)O
B4: Compound 93 (peptide)
peptide: Isovaleryl-APEK([Ahx-γGlu-C18 diacid])PEEDASPEEIQRYYVQLRHYYNWLTRQRY-NH2
SMILES: CC[C@H](C)[C@H](NC(=O)[C@H](CCC(=O)O)NC(=O)[C@H](CCC(=O)O)NC(=O)[C@@H]1CCCN1C(=O)[C@H](CO)NC(=O)[C@H](C)NC(=O)[C@H](CC(=O)O)NC(=O)[C@H](CCC(=O)O)NC(=O)[C@H](CCC(=O)O)NC(=O)[C@@H]1CCCN1C(=O)[C@H](CCCCNC(=O)CCCCCNC(=O)CC[C@H](NC(=O)CCCCCCCCCCCCCCCCC(=O)O)C(=O)O)NC(=O)[C@H](CCC(=O)O)NC(=O)[C@@H]1CCCN1C(=O)[C@H](C)NC(=O)CC(C)C)C(=O)N[C@@H](CCC(N)=O)C(=O)N[C@@H](CCCNC(=N)N)C(=O)N[C@@H](Cc1ccc(O)cc1)C(=O)N[C@@H](Cc1ccc(O)cc1)C(=O)N[C@H](C(=O)N[C@@H](CCC(N)=O)C(=O)N[C@@H](CC(C)C)C(=O)N[C@@H](CCCNC(=N)N)C(=O)N[C@@H](Cc1c[nH]cn1)C(=O)N[C@@H](Cc1ccc(O)cc1)C(=O)N[C@@H](Cc1ccc(O)cc1)C(=O)N[C@@H](CC(N)=O)C(=O)N[C@@H](Cc1c[nH]c2ccccc12)C(=O)N[C@@H](CC(C)C)C(=O)N[C@H](C(=O)N[C@@H](CCCNC(=N)N)C(=O)N[C@@H](CCC(N)=O)C(=O)N[C@@H](CCCNC(=N)N)C(=O)N[C@@H](Cc1ccc(O)cc1)C(N)=O)[C@@H](C)O)C(C)C
B5: Compound 88 (peptide)
peptide: Isovaleryl-APEK([Ahx-γGlu-C18 diacid])PEEDATPEELQRQYVSLRHYYNWLTRQRY-NH2
SMILES: CC(C)CC(=O)N[C@@H](C)C(=O)N1CCC[C@H]1C(=O)N[C@@H](CCC(=O)O)C(=O)N[C@@H](CCCCNC(=O)CCCCCNC(=O)CC[C@H](NC(=O)CCCCCCCCCCCCCCCCC(=O)O)C(=O)O)C(=O)N1CCC[C@H]1C(=O)N[C@@H](CCC(=O)O)C(=O)N[C@@H](CCC(=O)O)C(=O)N[C@@H](CC(=O)O)C(=O)N[C@@H](C)C(=O)N[C@H](C(=O)N1CCC[C@H]1C(=O)N[C@@H](CCC(=O)O)C(=O)N[C@@H](CCC(=O)O)C(=O)N[C@@H](CC(C)C)C(=O)N[C@@H](CCC(N)=O)C(=O)N[C@@H](CCCNC(=N)N)C(=O)N[C@@H](CCC(N)=O)C(=O)N[C@@H](Cc1ccc(O)cc1)C(=O)N[C@H](C(=O)N[C@@H](CO)C(=O)N[C@@H](CC(C)C)C(=O)N[C@@H](CCCNC(=N)N)C(=O)N[C@@H](Cc1c[nH]cn1)C(=O)N[C@@H](Cc1ccc(O)cc1)C(=O)N[C@@H](Cc1ccc(O)cc1)C(=O)N[C@@H](CC(N)=O)C(=O)N[C@@H](Cc1c[nH]c2ccccc12)C(=O)N[C@@H](CC(C)C)C(=O)N[C@H](C(=O)N[C@@H](CCCNC(=N)N)C(=O)N[C@@H](CCC(N)=O)C(=O)N[C@@H](CCCNC(=N)N)C(=O)N[C@@H](Cc1ccc(O)cc1)C(N)=O)[C@@H](C)O)C(C)C)[C@@H](C)O

The binders below were run against T1, human NPY2 receptor (assay: RLB: displacement of 125I-PYY(1-36) from hNPY2R membranes).

| Ki [nM] | Binder |
| --- | --- |
| 22.4 | B1 |
| 0.93 | B2 |
| 8.71 | B3 |
| 1.71 | B4 |
| 16.3 | B5 |
